Publication PMC4055269 (Molecular Biology of the Cell, 2014)

Target: the molecule itself
Test: SEC-MALS

B1: Drp1 C505A (enzyme, human, UniProt O00429-4 1-699, looked up)
chain: MEALIPVINKLQDVFNTVGADIIQLPQIVVVGTQSSGKSSVLESLVGRDLLPRGTGIVTRRPLILQLVHVSQEDKRKTTGEENGVEAEEWGKFLHTKNKLYTDFDEIRQEIENETERISGNNKGVSPEPIHLKIFSPNVVNLTLVDLPGMTKVPVGDQPKDIELQIRELILRFISNPNSIILAVTAANTDMATSEALKISREVDPDGRRTLAVITKLDLMDAGTDAMDVLMGRVIPVKLGIIGVVNRSQLDINNKKSVTDSIRDEYAFLQKKYPSLANRNGTKYLARTLNRLLMHHIRDCLPELKTRINVLAAQYQSLLNSYGEPVDDKSATLLQLITKFATEYCNTIEGTAKYIETSELCGGARICYIFHETFGRTLESVDPLGGLNTIDILTAIRNATGPRPALFVPEVSFELLVKRQIKRLEEPSLRCVELVHEEMQRIIQHCSNYSTQELLRFPKLHDAIVEVVTCLLRKRLPVTNEMVHNLVAIELAYINTKHPDFADAAGLMNNNIEEQRRNRLARELPSAVSRDKVASGGGGVGDGVQEPTTGNWRGMLKTSKAEELLAEEKSKPIPIMPASPQKGHAVNLLDVPVPVARKLSAREQRDCEVIERLIKSYFLIVRKNIQDSVPKAVMHFLVNHVKDTLQSELVGQLYKSSLLDDLLTESEDMAQRRKEAADMLKALQGASQIIAEIRETHLW
stoichiometry N: 2
